Reference: article PMC7063977, “Improving the Thermostability of Rhizopus chinensis Lipase Through Site-Directed Mutagenesis Based on B-Factor Analysis” (Frontiers in Microbiology, 2020)

B1: Lipr27RCL (Rhizopus microsporus var. chinensis) (protein)
chain: DTETVGGMTLDLPENPPPIPATSTAPSSDSGEVVTATAAQIKELTNYAGVAATAYCRSVVPGTKWDCKQCLKYVPDGKLIKTFTSLLTDTNGFILRSDAQKTIYVTFRGTNSFRSAITDMVFTFTDYSPVKGAKVHAGFLSSYNQVVKDYFPVVQDQLTAYPDYKVIVTGHSLGGAQALLAGMDLYQREKRLSPKNLSIYTVGCPRVGNNAFAYYVDSTGIPFHRTVHKRDIVPHVPPQAFGYLHPGVESWIKEDPADVQICTSNIETKQCSNSIVPFTSIADHLTYFGINEGSCL

Assays:
[1] = test system: CCCCCCCCCCCCCCCC(=O)Oc1ccc([N+](=O)[O-])cc1; experiment: p-nitrophenol release, Lineweaver-Burk; assay type: biochemical, Rhizopus microsporus; conditions: Tris-HCl pH 9, 37 °C, substrate 4-PNN [sic], 4-NPP in materials, apparent Km
Source text: (§1) p-nitrophenol release, Lineweaver-Burk on Lipr27RCL

[2] = substrate: CCCCCCCCCCCCCCCC(=O)Oc1ccc([N+](=O)[O-])cc1; experiment: p-nitrophenol release, Lineweaver-Burk; assay type: biochemical, Rhizopus microsporus; conditions: Tris-HCl pH 9, 37 °C, substrate 4-PNN [sic], 4-NPP in materials, apparent Km; remark: listed apart in the source
Source text: as §1

Row | Molecule | Km [1] | Vmax [1] | kcat [1] | kcat/Km [1] | Km [2] | Vmax [2] | kcat [2] | kcat/Km [2]
1 | Lipr27RCL (Rhizopus microsporus var. chinensis; D159T) | 0.38 ± 0.05 mM | 709 µmol/min/mg | 187 ± 16.3 s⁻¹ | 491000 M⁻¹ s⁻¹ | – | – | – | –
2 | Lipr27RCL (Rhizopus microsporus var. chinensis; W158I) | 0.45 ± 0.04 mM | 500 µmol/min/mg | 132 ± 19.4 s⁻¹ | 292000 M⁻¹ s⁻¹ | – | – | – | –
3 | Lipr27RCL (Rhizopus microsporus var. chinensis; K161T) | 0.29 ± 0.06 mM | 714 µmol/min/mg | 188 ± 13.7 s⁻¹ | 648000 M⁻¹ s⁻¹ | – | – | – | –
4 | Lipr27RCL (Rhizopus microsporus var. chinensis; K157N) | 0.29 ± 0.09 mM | 588 µmol/min/mg | 185 ± 18.5 s⁻¹ | 637000 M⁻¹ s⁻¹ | – | – | – | –
5 | B1 | – | – | – | – | 0.36 ± 0.06 mM | 714 µmol/min/mg | 188 ± 18.2 s⁻¹ | 522000 M⁻¹ s⁻¹
